Assay results as given in patent US20260151508A1 (BEAM THERAPEUTICS, published 2026).

Columns and labels:
[1] = biological target: T1, PiM (wild type) human alpha-1 antitrypsin (AAT) protein, bacterially expressed (human, UniProt P01009 25-418); experiment: in vitro neutrophil elastase binding assay, bacterially expressed AAT
T1 construct: The signal peptide is left out here; also called PiM (WT) AAT; wild-type AAT

[2] = biological target: T2, PiM+Bystander (D365G) human alpha-1 antitrypsin (AAT) protein, bacterially expressed (human, UniProt P01009 25-418); experiment: as above
T2 construct: Wild-type AAT altered to include D365G; also called D365G AAT protein; AAT protein with a D365G alteration
T2 sequence (P01009 25-418 D365G): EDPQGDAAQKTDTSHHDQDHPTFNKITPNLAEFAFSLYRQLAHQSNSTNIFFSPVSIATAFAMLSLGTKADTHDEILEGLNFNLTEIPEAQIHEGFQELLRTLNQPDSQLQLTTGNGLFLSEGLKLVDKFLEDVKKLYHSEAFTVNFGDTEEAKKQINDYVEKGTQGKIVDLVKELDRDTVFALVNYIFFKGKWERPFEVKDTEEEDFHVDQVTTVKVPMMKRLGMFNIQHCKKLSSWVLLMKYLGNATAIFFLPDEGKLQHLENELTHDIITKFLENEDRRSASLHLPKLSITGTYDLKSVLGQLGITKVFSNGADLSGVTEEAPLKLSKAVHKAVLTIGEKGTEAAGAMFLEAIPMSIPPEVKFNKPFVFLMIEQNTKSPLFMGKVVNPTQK

T1 sequence (P01009 25-418): as the sequence (P01009 25-418 D365G) above, with G341D counted along it

binding result [1]: binds
binding result [2]: binds
B1: human neutrophil elastase (enzyme, UniProt P08246 30-247, looked up)
chain: IVGGRRARPHAWPFMVSLQLRGGHFCGATLIAPNFVMSAAHCVANVNVRAVRVVLGAHNLSRREPTRQVFAVQRIFENGYDPVNLLNDIVILQLNGSATINANVQVAQLPAQGRRLGNGVQCLAMGWGLLGRNRGIASVLQELNVTVVTSLCRRSNVCTLVRGRQAGVCFGDSGSPLVCNGLIHGIASFVRGGCASGLYPDAFAPVAQFVNWIDSIIQ
notes: also called HNE
